The target in one test is T1, 155B-VP16.
T1 construct: Expressed in S. cerevisiae; also called DHD155B fused to VP16
T1 chain: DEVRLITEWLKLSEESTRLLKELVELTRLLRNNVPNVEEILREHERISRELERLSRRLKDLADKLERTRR
In words: split TF YFP reporter assay in S. cerevisiae (all-by-all matrix, FIG. 1D).

In a further test the target is T2, 37B-VP16.
T2 construct: Expressed in S. cerevisiae; also called DHD37B fused to VP16; 37B DHD-AD
T2 chain: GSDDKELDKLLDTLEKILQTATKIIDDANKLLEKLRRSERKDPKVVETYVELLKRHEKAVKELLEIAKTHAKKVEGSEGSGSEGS
The description is as above.

Test [1] addresses T3, DHD37B (fusion partner in the split TF assay not stated for this statement).
T3 construct: not shown: fused to VP16 or ZF43_8
T3 chain: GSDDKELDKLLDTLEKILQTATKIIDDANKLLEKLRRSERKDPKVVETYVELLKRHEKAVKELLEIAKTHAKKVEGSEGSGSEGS
Nature of the test: split TF YFP reporter assay in S. cerevisiae (all-by-all matrix, FIG. 1D); orientation of the fusions not told. In general terms: A reporter such as luciferase makes a cellular process visible.

Another test addresses T4, 154B-VP16.
T4 construct: Expressed in S. cerevisiae; also called DHD154B fused to VP16
T4 chain: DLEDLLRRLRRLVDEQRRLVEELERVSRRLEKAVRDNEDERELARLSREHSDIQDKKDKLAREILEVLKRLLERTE
In words: competition in the split TF YFP reporter assay in yeast, layout of FIG. 2A (FIG. 2D).

B1: 155A-ZF43_8 (designed binder)
chain: PEDDVVRIIKEDLESNREVLREQKEIHRILELVTRGEVSEEAIDRVLKRQEDLLKKQKESTDKARKVVEERR
notes: Expressed in S. cerevisiae; also called DHD155A fused to ZF43_8
In the case of B1, in the test with 155B-VP16, the binding result was “binds”.

B2: 37A-ZF43_8 (designed binder)
chain: DSDEHLKKLKTFLENLRRHLDRLDKHIKQLRDILSENPEDERVKDVIDLSERSVRIVKTVIKIFEDSVRKKEGSEGSGSEGS
notes: Expressed in S. cerevisiae; also called DHD37A fused to ZF43_8; 37A DHD-DBD
Consider B2, for which, in the test with 37B-VP16, the binding result is recorded as “binds”.

B3: DHD13B (fusion partner in the split TF assay not stated for this statement) (designed binder)
chain: GTEKRLLEEAERAHREQKEIIKKAQELHRRLEEIVRQSGSSEEAKKEAKKILEEIRELSKRSLELLREILYLSQEQKGSEGSGSEGS
notes: not shown: fused to VP16 or ZF43_8
B3: the binding result in test [1] was “binds”.

B4: 154A dominant negative (designed binder)
chain: TAEELLEVHKKSDRVTKEHLRVSEEILKVVEVLTRGEVSSEVLKRVLRKLEELTDKLRRVTEEQRRVVEKLN
notes: also called DN
Turning to B4, the binding result in the test with 154B-VP16 is given as “binds”.

The values above are taken from patent publication US20250084406A1 (University of California, published 2025).
